Assay: yeast display, Sf9 membrane polyspecificity reagent, FACS + sequencing; frameworks hold sequencing errors
How it was run: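 Using colony PCR, genes from sorted yeast display clones were amplified, then sequenced on MiSeq at 2 × 250 and filtered by CDR length. The clones had been stained with 10% biotinylated, detergent-solubilized Sf9 membrane reagent for 1 hour at 4 °C and sorted by FACS into low and high (top ~1%) gates on anti-HA and streptavidin fluorescence. Polyreactivity labels come from the gate of origin.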

Sequence	polyreactivity (PSR sort gate)
QVQLVESGGGLVQAGGSLRLSCAASGRTFGRNAMGWYRQAPGERELVAVISRGGSTYYADSVKGRFTISRDNAKNTVYLQMNSLKPEDTAVYYCNADTVYTRNATYDYWGQCTQVTVSS	low polyreactivity
QVQLVESGGGLVQAGGSLRLSCAASGRTFGRNAMGWYRQAPGKERELVAAINGNGGRTSYADSVKGRFTISRDNAKNTVYLPMNSLKPEDTAVYYCNKYTPGWYRYYYWGQGTQVTVSS	high polyreactivity
QVQLVESGGGLVQAGGSLRLSCAASGRTFGRNAMGWYRQAPGKERELVAAISSSGASTYYADSVKGRFTISRDNAKNTVYLQMNSLKPEDTAVYYCAKDVWGSRYAYDYWGQGTQVTVSS	low polyreactivity
QVQLVESGGGLVQAGGSLRLSCAASGRTFGRNTMGWYRQAPGKERELVAAIDWSGGSTYYADSVKGRFTISRDNAKNTVYLQMNSLKPEDTAVYYCAAKTRWNFYYWGQGTQVTVSS	high polyreactivity
QVQLVESGGGLVQAGGSLRLSCAASGRTFGRYAMGWYRQAPGKERELVAAINSGSASTYYADSVKGRFTISRDNAKNTVYLQMNSLKPEDTAVYYCAVYGYWSKSDYWGQGTQVTVSS	high polyreactivity
QVQLVESGGGLVQAGGSLRLSCAASGRTFGRYTMGWYRQAPGKERELVATIRFNGGSTYYADSVKGRFTISRDNAKNTVYLQMNSLKPEDTAVYYCASYRGAYWGQGTQVTVSS	high polyreactivity
QVQLVESGGGLVQAGGSLRLSCAASGRTFGRYVMGWYRQAPGKERELVAAIDGSGGSTYYADSVKGRFTISRDNAKNTVYLQMNSLKPEDTAVYYCNADVGFVGGDYWGQGTQVTVSS	high polyreactivity
QVQLVESGGGLVQAGGSLRLSCAASGRTFGSYAMGWYRQAPGKEREFVASISRRGGSTYYADSVKVRFTISRDNAKNTVYLQINSLKPEDTAVYYCAAGVPASWFDYWGQGTQVTVSS	high polyreactivity
QVQLVESGGGLVQAGGSLRLSCAASGRTFGSYAMGWYRQAPGKERELVAAISSSGGRTYYADSVKGRFTISRDNAKTTVYLQMNSLKPEDTAVYSCNARWRFLYDYWGQGTQVTVSS	high polyreactivity
QVQLVESGGGLVQAGGSLRLSCAASGRTFGSYAMGWYRQAPGKERELVAAITASGVRTYYADSVKGRFTISRDNAKNTVYLQMNSLKPEDTAVYYCNARRLSTVQYDYWGQGTQVTVSS	high polyreactivity
QVQLVESGGGLVQAGGSLRLSCAASGRTFGSYAMGWYRQAPGKERELVAAITTDASTNYADSVKGRFTISRDNAKNTVYLQMNSLKPEDTAVYYCAKRKRTNYGFWGQGTQVTVSS	low polyreactivity
QVQLVESGGGLVQAGGSLRLSCAASGRTFGSYGMGWYRQAPGKERELVAAISRSVGSTYYADSVKGRFTISRDNAKITVYLQMNSLKPEDTAVYYCNTVDRRRYAGHYYWGQGTQVTVSS	high polyreactivity
QVQLVESGGGLVQAGGSLRLSCAASGRTFGSYVMGWYRQAPGKERELVAAISSRGTRTYYADSVKGRFTISRDNAKNTVYLQMNSLKPEDTAVYYCAAEWPYRFQYGEMDYWGQGTQVTVSS	high polyreactivity
QVQLVESGGGLVQAGGSLRLSCAASGRTFGTYAMGWYRQAPGKDRELVAAISRRGGTTYYADSVKGRFTISRDNAKNTVYLQMNSLKPEDTAVYYCARASWSITTVLSTMDYWGQGTQVTVSS	high polyreactivity
QVQLVESGGGLVQAGGSLRLSCAASGRTFGVNAMGWYRQAPGKEREFVAAISRSTGSTYYADSVKGRFTISRDNAKNTVYLQMNSLKPEDTAVYYCAVKGASYPAYRGYDYWGQGTQVTVSS	high polyreactivity
QVQLVESGGGLVQAGGSLRLSCAASGRTFGVNAMGWYRQAPGKERELVARIRVSGGRTYYADSVKGLFTISRDNAKNTVYLQMNSLKPEDTAVYYCNAGYTYNRVIWPYYYWGQGTQVTVSS	high polyreactivity

Sequence	polyreactivity (PSR sort gate)
QVQLVESGGGLVQAGGSLRLSCAASGRTFGVNTMGCYRQAPGKEREFVASISTSGGSTYADSVNGRFTISRDNAKNTVYLQMNSLKPEDTAVYYCAKDTDAVYDEYDSWGQGTQVTVSS	low polyreactivity
QVQLVESGGGLVQAGGSLRLSCAASGRTFGVNTMGWYRQAPGKERELVASISTSGGSTYADSVKGRFTISRDNAKNTVYLQMNSLKPEDTAVYYCAKDTDAVYDEYDSWGQGTQVTVSS	low polyreactivity
QVQLVESGGGLVQAGGSLRLSCAASGRTFGVYAMGWYRQAPGKERELVAGIRWRGGSTYYADSVKGRFTISRDNAKNTVYLQMNSLKPEDTAVYYWAARVQFPYPDYAWITVLYDYWGQCTQVTVSS	low polyreactivity
QVQLVESGGGLVQAGGSLRLSCAASGRTFGVYAMGWYRQAPGKERELVARIRYSGGTTRYADSVKGRFTISRDNAKITVYFQMNSLKPEDTAVYYCAARSGYFRSRFDYWGQGTQVTVSS	high polyreactivity
QVQLVESGGGLVQAGGSLRLSCAASGRTFGVYVMGWYRQAPGKERELVAAIRIGDSTNYADSVKGRFTISRDNAKNTVYLQMNSLKPEDTAVYYCNAYRVRYTVDSVFYGYDYWGQGTQVTVSS	high polyreactivity
QVQLVESGGGLVQAGGSLRLSCAASGRTFGVYVMGWYRQAPGKERELVAVITISGGSTYYADSVKGRFTISRDNAKNTVYLQMNSLKPEDTAVYYCAARTYYGYDYWGQGTQVTVSS	high polyreactivity
QVQLVESGGGLVQAGGSLRLSCAASGRTFGWNAMGWYRQAPGKERELVAAITRGGITNYADSVKGRFTISRDNAKNTVYLQMNSLKPEDTAVYYCNKKFYRGASRYYYWGQGTQVTVSS	high polyreactivity
QVQLVESGGGLVQAGGSLRLSCAASGRTFGWYAMGWYRQAPGKERELVAAISSSDDSTYYADSVKGRFTISRDNAKNTVYLQMNSLKPEDTAVYYCAADGYPDPYKVRFGYWGQGTQVTVSS	low polyreactivity
QVQLVESGGGLVQAGGSLRLSCAASGRTFGWYTMGRYRQAPGKERELVAGISSSGGSTYYADSVKGRFTISRDNAKNTVYLQMNSLKPEDTAVYYCARETYPHGLYYRPYDYWGQGTQVTVSS	low polyreactivity
QVQLVESGGGLVQAGGSLRLSCAASGRTFGYNAMGWNRQAPGKERELVAAINWSGASTYYADSVKGRFTISRDNAKNTVYFQMNSLKPADTAVYYCAADYSYIYGFDYWGQGTQVTVSS	low polyreactivity
QVQLVESGGGLVQAGGSLRLSCAASGRTFGYNAMGWYRQAPGKEREFVAAITWSGGRTYYADSVKGRFTISRDNAKNTVYLQMISLKPEDTAVYYCAAVLGRPLHGVAYGYWGQGTQVTVSS	low polyreactivity
QVQLVESGGGLVQAGGSLRLSCAASGRTFGYNAMGWYRQAPGKERELVAAISYSGGRTYYADSVKGRFTISRDNAKNTVYLQMNSLKPEDTAVYYCAAKNPYKYDYWGQGTQVTVSS	high polyreactivity
QVQLVESGGGLVQAGGSLRLSCAASGRTFGYNAMGWYRQAPGKERELVAAITRGGSTYYADSVKGRFTISRDNAKNTVYLQMNSLKPEDTAVYYCAAKSYWSGYFVGYEYWGQGTQVTVSS	high polyreactivity
QVQLVESGGGLVQAGGSLRLSCAASGRTFGYNAMGWYRQAPGTERELVAGITGTGGTTNYADSVKGRFTISRDNAKNTVYLQMNSLKPEDTAVYYCNKDYDVSSEKEPLGYWGQGTQVTVSS	low polyreactivity
QVQLVESGGGLVQAGGSLRLSCAASGRTFGYNGMGWYRQAPGKERELVAAINSGGNTNYADSVKGRFTISRDNAKNTVYLQMNSLKPEDTSVYYCAKYGTLFEPVPNEYDYWGQGTQVTVSS	low polyreactivity
QVQLVESGGGLVQAGGSLRLSCAASGRTFGYNVMGWYRQAPGKERELVARITSGGNTKYADSVKGRFTISRDNAKNTVYLQMNSLKPEDTAVYYCAKRPLGVRGIYFQYDYWGQGTQVTVSS	high polyreactivity

— the nanobody polyreactivity screen of Harvey et al. (2022)
